To fix the notation:
B1: CCDC89 (parent)
chain: LNAELEEKMMQEAEKLKAQGEYSR
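Note: lentivirally expressed fusions sorted by FACS into six bins by GFP to DsRed ratio, PSI derived from sequencing read proportions per bin multiplied by bin number.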

The data set covers variants of B1. Description: protein stability index of a GFP-peptide fusion (GPS, HEK-293T) (PSI 1-6); higher = more stable. The note with it: c terminus: a fixed tail appended.
Regarding LNAELEEKMMQEAEKLKAQGEYNR [S23N], the protein stability index was 4.51.

For LNAELEEKMMQEAEKLKAQGEYVR [S23V], the protein stability index came out at 4.43. As for LNAELEEKMMQEAEKLKAQGEYWR [S23W], the figure is 4.97.

Take LNAELEEKMMQEAEKLKAQGEYCR [S23C]: the protein stability index is 4.73. As for LNAELEEKMMQEAEKLKAQGEYHR [S23H], the figure is 3.95; as for LNAELEEKMMQEAEKLKAQGEYIR [S23I], 4.19; as for LNAELEEKMMQEAEKLKAQGEYLR [S23L], 5.2. As to LNAELEEKMMQEAEKLKCQGEYSR [A18C], the protein stability index was found to be 4.79. Turning to LNAELEEKMMQEAEKLKGQGEYSR [A18G], the protein stability index was 4.43. As for LNAELEEKMMQEAEKLKHQGEYSR [A18H], the figure is 4.15; as for LNAELEEKMMQEAEKLKWQGEYSR [A18W], 4.15. Under LNAELEEKMMQEAEKLKDQGEYSR [A18D] stands 4.95; under LNAELEEKMMQEAEKLKMQGEYSR [A18M], 4.71. Under LNAELEEKMMQEAEKLKTQGEYSR [A18T] stands 5.07; under LNAELEEKMMQEAEKLKQQGEYSR [A18Q], 5.3; under LNAELGEKMMQEAEKLKAQGEYSR [E6G], 5.15. Regarding LNAELIEKMMQEAEKLKAQGEYSR [E6I], the protein stability index is 4.08. As for LNAELNEKMMQEAEKLKAQGEYSR [E6N], the figure is 4.71; as for LNAELHEKMMQEAEKLKAQGEYSR [E6H], 4.79. As for LNAELREKMMQEAEKLKAQGEYSR [E6R], the figure is 4.36; as for LNAELVEKMMQEAEKLKAQGEYSR [E6V], 3.04; as for LNAELWEKMMQEAEKLKAQGEYSR [E6W], 3.56. Take LNAELPEKMMQEAEKLKAQGEYSR [E6P]: the protein stability index worked out at 4.8. Under LNAELMEKMMQEAEKLKAQGEYSR [E6M] stands 4.42. As for LNAELEEKMMQEAEKLKATGEYSR [Q19T], the figure is 5.18; as for LNAELEEKMMQEAEKLKAEGEYSR [Q19E], 5.84; as for LNAELEEKMMQEAEKLKAFGEYSR [Q19F], 3.64. For LNAELEEKMMQEAEKLKAKGEYSR [Q19K], the protein stability index was determined as 5.3. Regarding LNAELEEKMMQEAEKLKAIGEYSR [Q19I], the protein stability index amounted to 3.83.

Take LNAELEEKMMQEAEKLKAVGEYSR [Q19V]: the protein stability index was 5.57. Under LNAELEEKMMQEAEKLKACGEYSR [Q19C] stands 4.66; under LNAELEEKMMQEAEKLKAYGEYSR [Q19Y], 2.53. Under LNAELEEKKMQEAEKLKAQGEYSR [M9K] stands 3.98. Under LNAELEEKNMQEAEKLKAQGEYSR [M9N] stands 5.1; under LNAELEEKTMQEAEKLKAQGEYSR [M9T], 5.23; under LNAELEEKGMQEAEKLKAQGEYSR [M9G], 5.05. For LNAELEEKLMQEAEKLKAQGEYSR [M9L], the protein stability index was 3.96. Under LNAELEEKCMQEAEKLKAQGEYSR [M9C] stands 5.52; under LNAELEEKHMQEAEKLKAQGEYSR [M9H], 5.95. Consider LNAELEEKIMQEAEKLKAQGEYSR [M9I], for which the protein stability index was found to be 5.12. Under LNAELEEKDMQEAEKLKAQGEYSR [M9D] stands 4.89; under LNAELEEKAMQEAEKLKAQGEYSR [M9A], 5.2; under LNAELEEKQMQEAEKLKAQGEYSR [M9Q], 4.79. Consider LNAELEEKWMQEAEKLKAQGEYSR [M9W], for which the protein stability index worked out at 5.04. As for LNAELEEKMMQEAEKLKAQAEYSR [G20A], the figure is 4.98. As for LNAELEEKMMQEAEKLKAQHEYSR [G20H], the figure is 4.35. As for LNAELEEKMMQEAEKLKAQEEYSR [G20E], the figure is 4.82. With LNAELEEKMMQEAEKLKAQIEYSR [G20I], the protein stability index was determined as 3.68.

On to LNAELEEKMMQEAEKLKAQSEYSR [G20S], for which the protein stability index amounted to 4.91. Regarding LNAELEEKMMQEAEKLKAQREYSR [G20R], the protein stability index worked out at 4.85. As for LNAELEEKMMQEAEKLKAQKEYSR [G20K], the figure is 5.22; as for LRAELEEKMMQEAEKLKAQGEYSR [N2R], 3.94; as for LSAELEEKMMQEAEKLKAQGEYSR [N2S], 5.11. Under LFAELEEKMMQEAEKLKAQGEYSR [N2F] stands 4.17; under LTAELEEKMMQEAEKLKAQGEYSR [N2T], 5.32. As for LQAELEEKMMQEAEKLKAQGEYSR [N2Q], the figure is 5.63; as for LPAELEEKMMQEAEKLKAQGEYSR [N2P], 4.82. Regarding LNAELEEKMMQEAEKLKAQGAYSR [E21A], the protein stability index amounted to 4.77. As for LNAELEEKMMQEAEKLKAQGMYSR [E21M], the figure is 4.76.

Consider LNAELEEKMMQEAEKLKAQGNYSR [E21N], for which the protein stability index is 4.79.

Take LNAELEEKMMQEAEKLKAQGSYSR [E21S]: the protein stability index was found to be 4.39. Under LNAELEEKMMQEAEKLKAQGDYSR [E21D] stands 4.92.

For the variant LNAELEEKMMQEAEKLKAQGGYSR [E21G], the protein stability index was determined as 4.17. As for LNAELEEKMMQEAEKLKAQGRYSR [E21R], the figure is 4.98; as for LNPELEEKMMQEAEKLKAQGEYSR [A3P], 4.76; as for LNDELEEKMMQEAEKLKAQGEYSR [A3D], 5.08. Take LNFELEEKMMQEAEKLKAQGEYSR [A3F]: the protein stability index was 4.57.

LNKELEEKMMQEAEKLKAQGEYSR [A3K]: the protein stability index was determined as 5.28. As to LNSELEEKMMQEAEKLKAQGEYSR [A3S], the protein stability index stood at 4.96. As for LNCELEEKMMQEAEKLKAQGEYSR [A3C], the figure is 4.69; as for LNHELEEKMMQEAEKLKAQGEYSR [A3H], 4.71; as for LNIELEEKMMQEAEKLKAQGEYSR [A3I], 4.9. Consider LNAETEEKMMQEAEKLKAQGEYSR [L5T], for which the protein stability index was determined as 5.47. As for LNAEQEEKMMQEAEKLKAQGEYSR [L5Q], the figure is 5.55; as for LNAENEEKMMQEAEKLKAQGEYSR [L5N], 5.44. As for LNAEREEKMMQEAEKLKAQGEYSR [L5R], the figure is 4.7. Under LNAEYEEKMMQEAEKLKAQGEYSR [L5Y] stands 4.33; under LNAEFEEKMMQEAEKLKAQGEYSR [L5F], 4.73. With LNAEHEEKMMQEAEKLKAQGEYSR [L5H], the protein stability index turned out to be 5.19. Under LNAEVEEKMMQEAEKLKAQGEYSR [L5V] stands 5.09; under LNAEEEEKMMQEAEKLKAQGEYSR [L5E], 5.46. Under LNAEMEEKMMQEAEKLKAQGEYSR [L5M] stands 5.21; under LNAEIEEKMMQEAEKLKAQGEYSR [L5I], 4.88. Consider LNAELEMKMMQEAEKLKAQGEYSR [E7M], for which the protein stability index worked out at 4.54. Consider LNAELECKMMQEAEKLKAQGEYSR [E7C], for which the protein stability index was 5.

As to LNAELEQKMMQEAEKLKAQGEYSR [E7Q], the protein stability index came to 4.18.

LNAELEDKMMQEAEKLKAQGEYSR [E7D]: the protein stability index was 4.81. As for LNAELEAKMMQEAEKLKAQGEYSR [E7A], the figure is 4.87; as for LNAELEEKMRQEAEKLKAQGEYSR [M10R], 5.25.

Consider LNAELEEKMEQEAEKLKAQGEYSR [M10E], for which the protein stability index stood at 5.39. As for LNAELEEKMLQEAEKLKAQGEYSR [M10L], the figure is 5.46; as for LNAELEEKMDQEAEKLKAQGEYSR [M10D], 5.08; as for LNAELEEKMTQEAEKLKAQGEYSR [M10T], 5.42.

LNAELEEKMHQEAEKLKAQGEYSR [M10H]: the protein stability index came out at 5.11.

These data come from the supplement of paper PMC10567573.
